Experimental findings from patent US7579150B1, “Mobile RNA acts as a signal to regulate plant growth and development” (Iowa State University Research Foundation, Inc., priority 2004, dated 2009) are described below.

Experiment [1] deals with T1, GAD protein alone (GAL4 activation domain) (UniProt P04386 768-881, limits assumed).
T1 construct: domain: GAD; Negative control of the immunoprecipitation assay
T1 sequence (looked up): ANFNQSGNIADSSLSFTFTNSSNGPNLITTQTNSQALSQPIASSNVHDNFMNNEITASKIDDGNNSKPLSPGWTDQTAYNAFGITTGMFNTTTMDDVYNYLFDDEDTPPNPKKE
As to the kind of experiment: immunoprecipitation of in vitro translated 35S-labelled proteins with anti-GAD antibodies. Here is the method:
(§1) In vitro binding experiments were performed as described by Ni et al., "PIF3, a Phytochrome-Interacting Factor Necessary for Normal Photoinduced Signal Transduction, is a Novel Basic Helix-Loop-Helix Protein," *Cell* 95:657-667 (1998), which is hereby incorporated by reference in its entirety. The full-length sequence for POTH1 was cloned into a pET17b/GAD fusion cassette and transcribed under the control of the T7 promoter. The BEL cDNAs were cloned into pGEM11Z vectors and were transcribed under the control of the T7 promoter. ^35S-methionine labeled bait and prey proteins were synthesized using the TnT in vitro transcription-translation kit (Promega) according to the manufacturer's protocols. Each 50 µl TnT reaction contained 2.0 µg of template plasmid DNA and […] (20 µCi) of labeled ^35S-methionine. The POTH1:GAD/BEL complex was immunoprecipitated with anti-GAD antibodies (Santa Cruz Biotechnology, CA). The proteins from the pellet (one-half the fraction) and for the prey (one-fourth of the reaction volume) were resolved on a 10% SDS-PAGE gel and visualized by autoradiography.

The target of experiment [2] is T2, GAD:POTH1 fusion protein (full-length POTH1 fused to the GAL4 activation domain) (Solanum tuberosum, 35S-methionine labelled (in vitro translation)).
T2 construct: In vitro transcribed/translated bait of the immunoprecipitation assay; no 35S label there; also called POTH1:GAD
T2 chain: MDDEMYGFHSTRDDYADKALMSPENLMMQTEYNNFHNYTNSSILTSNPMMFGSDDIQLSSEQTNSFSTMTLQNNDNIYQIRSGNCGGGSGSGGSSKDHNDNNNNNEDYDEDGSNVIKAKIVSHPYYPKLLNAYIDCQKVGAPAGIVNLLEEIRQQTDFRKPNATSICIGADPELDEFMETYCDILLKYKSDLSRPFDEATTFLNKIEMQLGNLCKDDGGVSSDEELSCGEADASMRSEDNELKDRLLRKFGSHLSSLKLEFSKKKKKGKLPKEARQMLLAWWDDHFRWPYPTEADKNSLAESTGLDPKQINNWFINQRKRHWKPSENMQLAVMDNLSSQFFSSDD
Nature of the experiment: immunoprecipitation of in vitro transcribed/translated proteins. Here is the method:
as §1

Experiment [3] deals with T3, pBHD9, first amino-terminal 114 aa of POTH1 in pBridge (GAL4 DNA-binding domain fusion) (Solanum tuberosum).
T3 construct: also called pBDH9
As to the kind of experiment: in vitro binding protocol (immunoprecipitation of in vitro translated proteins).

In experiment [4] the target is T2, GAD:POTH1 fusion protein (full-length …). Nature of the experiment: co-immunoprecipitation of in vitro translated 35S-labelled proteins with anti-GAD antibodies, SDS-PAGE and autoradiography. Here is the method: as §1

B1: StBEL-13 protein synthesized in vitro from pGEM11Z (other)
chain: MVMGGGASSQQLGYAKNHTPNVAESMQLFLMNPQPRSPSPSPPNSTSSTLHMLLPNPSSTSTLQGFPNPAEGSFGQFITWGNGGASAATATHHLNAQNEIGGVNVVESQGLSLSLSSSLQHKAEELQMSGEAGGMMFFNQGGSSTSGQYRYKNLNMGGSGVSPNIHQVHVGYGSSLGVVNVLRNSKYAKAAQELLEEFCSVGRGKLKKTNNKAAANNPNTNPSGANNEASSKDVPTLSAADRIEHQRRKVKLLSMVDEVDRRYNHYCEQMQMVVNSFDLVMGFGTAVPYTALAQKAMSRHFRCLKDAIGAQLKQSCELLGEKDAGNSGLTKGETPRLKMLEQSLRQQRAFHQMGMMEQEAWRPQRGLPERSVNILRAWLFEHFLHPYPSDADKHLLARQTGLSRNQVSNWFINARVRLWKPMVEDMYQQEAKDEDGDGDEKSQSQNSGNNIIAQTPTPNSLTNTSSTNMTTTTAPTTTTALAAAETGTAATPITVTSSKRSQINATDSDPSLVAINSFSENQATFPTNIHDPDDCRRGNLSGDDGTTTHDHMGSTMIRFGTTAGDVSLTLGLRHAGNLPENTHFFG
modifications: 35S-methionine labelled (in vitro translation)
notes: BEL cDNA cloned into pGEM11Z under the T7 promoter; also called p11Z-13
On to B1, for which the binding result in experiment [1] was “no binding”; in experiment [2] it was “binds”.

B2: StBEL-05 protein synthesized in vitro from pGEM11Z (other)
chain: MYYQGTSDNTNIQADHQQRHNHGNSNNNNIQTLYLMNPNNYMQGYTTSDTQQQQQLLFLNSSPAASNALCHANIQHAPLQQQHFVGVPLPAVSLHDQINHHGLLQRMWNNQDQSQQVIVPSSTGVSATSCGGITTDLASQLAFQRPIPTPQHRQQQQQQGGLSLSLSPQLQQQISFNNNISSSSPRTNNVTIRGTLDGSSSNMVLGSKYLKAAQELLDEVVNIVGKSIKGDDQKKDNSMNKESMPLASDVNTNSSGGGESSSRQKNEVAVELTTAQRQELQMKKAKLLAMLEEVEQRYRQYHHQMQIIVLSFEQVAGIGSAKSYTQLALHAISKQFRCLKDAIAEQVKATSKSLGEEEGLGGKIEGSRLKFVDHHLRQQRALQQIGMMQPNAWRPQRGLPERAVSVLRAWLFEHFLHPYPKDSDKIMLAKQTGLTRSQVSNWFINARVRLWKPMVEEMYLEEVKNQEQNSTNTSGDNKNKETNISAPNEEKHPIITSSLLQDGITTTQAEISTSTISTSPTAGASLHHAHNFSFLGSFNMDNTTTTVDHIENNAKKQRNDMHKFSPSSILSSVDMEAKARESSNKGFTNPLMAAYAMGDFGRFDPHDQQMTANFHGNNGVSLTLGLPPSENLAMPVSQQNYLSNDLGSRSEMGSHYNRMGYENIDFQSGNKRFPTQLLPDFVTGNLGT
modifications: 35S-methionine labelled (in vitro translation)
notes: BEL cDNA cloned into pGEM11Z under the T7 promoter; also called p11Z-5
For the molecule B2, the binding result in experiment [1] and in experiment [3] was “no binding” in each case.

B3: StBEL-30 protein synthesized in vitro from pGEM11Z (other)
chain: MATYFPSPNNQRDADQTFQYFRQSLPESYSEASNAPENMMVFMNYSSSGAYSDMLTGTSQQQHNCIDIPSIGATPFNTSQQEILSNLGGSQMGIQDFSSWRDSRNEMLADNVFQVAQNVQGQGLSLSLGSNIPSGIGISHVQSQNPNQGGGFNMSFGDGDNSQPKEQRNADYFPPDNPGRDLDAMKGYNSPYGTSSIARTIPSSKYLKAAQYLLDEVVSVRKAIKEQNSKKELTKDSRESDVDSKNISSDTPANGGSNPHESKNNQSELSPTEKQEVQNKLAKLLSMLDEIDRRYRQYYHQMQIVVSSFDVVAGEGAAKPYTALALQTISRHFRCLRDAICDQIRASRRSLGEQDASENSKAIGISRLRFVDHHIRQQRALQQLGMMQQHAWRPQRGLPESSVSVLRAWLFEHFLHPYPKDSDKIMLARQTGLTRSQVSNWFINARVRLWKPMVEEMYKEEAGDAKIDSNSSSDVAPRLATKDSKVEERGELHQNAASEFEQYNSGQILESKSNHEADVEMEGASNAETQSQSGMENQTGEPLPAMDNCTLFQDAFVQSNDRFSEFGSFGSGNVLPNGVSLTLGLQQGEGSNLPMSIETHVSYVPLRADDMYSTAPTTMVPETAEFNCLDSGNRQQPFWLLPSAT
modifications: 35S-methionine labelled (in vitro translation)
notes: BEL cDNA cloned into pGEM11Z under the T7 promoter; also called p11Z-30
For the molecule B3, the binding result in experiment [4] is on record as “binds”; in experiment [1], “no binding”.
